Test results as given in patent US20210054097A1 (Novo Nordisk, published 2021).
Ends that are not written are not given here.

T1: FX activation peptide 12-mer TSSSGEAPDSIT (human)
T1 peptide: TSSSGEAPDSIT-biotin

T2: FX activation peptide 12-mer YDAADLDPTENP (human)
T2 peptide: YDAADLDPTENP-biotin

T3: FX activation peptide 12-mer AQATSSSGEAPD (human)
T3 peptide: AQATSSSGEAPD-biotin

T4: FX activation peptide 12-mer FNQTQPERGDNN (human)
T4 peptide: FNQTQPERGDNN-biotin

T5: FX activation peptide 12-mer TENPFDLLDFNQ (human)
T5 peptide: TENPFDLLDFNQ-biotin

T6: FX activation peptide 12-mer APDSITWKPYDA (human)
T6 peptide: APDSITWKPYDA-biotin

T7: FX activation peptide 12-mer NPFDLLDFNQTQ (human)
T7 peptide: NPFDLLDFNQTQ-biotin

T8: FX activation peptide 12-mer QTQPERGDNNLT (human)
T8 peptide: QTQPERGDNNLT-biotin

T9: FX activation peptide 12-mer DFNQTQPERGDN (human)
T9 peptide: DFNQTQPERGDN-biotin

T10: FX activation peptide 12-mer SITWKPYDAADL (human)
T10 peptide: SITWKPYDAADL-biotin

T11: FX activation peptide 12-mer DLDPTENPFDLL (human)
T11 peptide: DLDPTENPFDLL-biotin

T12: FX activation peptide 12-mer SSGEAPDSITWK (human)
T12 peptide: SSGEAPDSITWK-biotin

T13: FX activation peptide 12-mer AADLDPTENPFD (human)
T13 peptide: AADLDPTENPFD-biotin

T14: FX activation peptide 12-mer LDPTENPFDLLD (human)
T14 peptide: LDPTENPFDLLD-biotin

T15: FX activation peptide 12-mer TWKPYDAADLDP (human)
T15 peptide: TWKPYDAADLDP-biotin

T16: FX activation peptide 12-mer DSITWKPYDAAD (human)
T16 peptide: DSITWKPYDAAD-biotin

T17: FX activation peptide 12-mer SGEAPDSITWKP (human)
T17 peptide: SGEAPDSITWKP-biotin

T18: FX activation peptide 12-mer DAADLDPTENPF (human)
T18 peptide: DAADLDPTENPF-biotin

T19: FX activation peptide 12-mer KPYDAADLDPTE (human)
T19 peptide: KPYDAADLDPTE-biotin

T20: FX activation peptide 12-mer ENPFDLLDFNQT (human)
T20 peptide: ENPFDLLDFNQT-biotin

T21: FX activation peptide 12-mer NQTQPERGDNNL (human)
T21 peptide: NQTQPERGDNNL-biotin

T22: FX activation peptide 12-mer TQPERGDNNLTR (human)
T22 peptide: TQPERGDNNLTR-biotin

T23: FX activation peptide 12-mer DLLDFNQTQPER (human)
T23 peptide: DLLDFNQTQPER-biotin

T24: FX activation peptide 12-mer ITWKPYDAADLD (human)
T24 peptide: ITWKPYDAADLD-biotin

T25: FX activation peptide 12-mer ATSSSGEAPDSI (human)
T25 peptide: ATSSSGEAPDSI-biotin

T26: FX activation peptide 12-mer LDFNQTQPERGD (human)
T26 peptide: LDFNQTQPERGD-biotin

T27: FX activation peptide 12-mer EAPDSITWKPYD (human)
T27 peptide: EAPDSITWKPYD-biotin

T28: FX activation peptide 12-mer QATSSSGEAPDS (human)
T28 peptide: QATSSSGEAPDS-biotin

T29: FX activation peptide 12-mer PYDAADLDPTEN (human)
T29 peptide: PYDAADLDPTEN-biotin

T30: FX activation peptide 12-mer WKPYDAADLDPT (human)
T30 peptide: WKPYDAADLDPT-biotin

T31: FX activation peptide 12-mer GEAPDSITWKPY (human)
T31 peptide: GEAPDSITWKPY-biotin

T32: FX activation peptide 12-mer FDLLDFNQTQPE (human)
T32 peptide: FDLLDFNQTQPE-biotin

T33: FX activation peptide 12-mer SSSGEAPDSITW (human)
T33 peptide: SSSGEAPDSITW-biotin

B1: Nb 701B09 (VHH)
VHH: EVQLVESGGGVVQPGGSLRLSCAASGRTFSTYAMGWFRQAPGKEREFVAAISWSGSRTYYADSVKGRFTISRDNSKNTVYLQMNSLRPEDTALYYCAADATPANGELDYWGQGTLVTVSS
notes: monovalent Nanobody; also called Nb 701609; not shown: C-terminal FLAG3 and HIS6 tag
B2: Nb 702C12 (VHH)
VHH: EVQLVESGGGVVQPGGSLRLSCVASGRTFSRYAMGWFRQAPGKEREFVAAISRRGGSTNYADSVKGRFTISRDNSKNTVYLQMNSLRPEDTALYYCAADYSSGDGYLDYWGQGTLVTVSS
notes: monovalent Nanobody; not shown: C-terminal FLAG3 and HIS6 tag
B3: Nb 730C03 (VHH)
VHH: EVQLVESGGGVVQPGGSLRLSCVASGFTFSDYAMSWVRQAPGKGLEWVSGITSGSGRTYYADSVKGRFTISRDNSKNTVYLQMNSLRPEDTALYYCAAAILRGYRKTYDYWGQGTLVTVSS
notes: monovalent Nanobody; also called Nb 730003; not shown: C-terminal FLAG3 and HIS6 tag

Legend:
Assay in all cases: peptide ELISA
[1] = target: T1, FX activation peptide 12-mer …
Method: (§1) The peptides were C-terminally conjugated to biotin and 50 μL of 1 μg/mL peptide solution was used for immobilization in discrete wells of the microtiter plate which was pre-coated with 1 μg/mL streptavidin. Each well was washed with washing buffer (10 mM Tris, 150 mM NaCl, 2.5 mM CaCl₂, 0.05% Tween 20, pH 8.60) followed by addition of 50 μL of 2 μg/mL FLAG-tagged anti-FX Nanobody® or IgG antibody to be tested. After 1 hour non-bound Nanobody®/antibody was washed off using washing buffer.
(§2) Bound anti-FX activation peptide ligand was detected by first binding a HRP-labelled secondary antibody (for FLAG-tagged Nanobodies: Anti-FLAG mAb M2-Peroxidase (HRP) (Sigma Aldrich, US), for antibody: Fcγ Fragment Specific Peroxidase AffiniPure F(ab′)₂ Fragment Goat Anti-Human IgG (Jackson ImmunoResearch Laboratories, Inc., US), or Peroxidase AffiniPure Goat Anti-Mouse IgG (Jackson ImmunoResearch Laboratories, Inc., US)) for 1 hour, and then adding 100 μL TMB-1 ELISA substrate (Kem-En-Tec Diagnostics, Denmark).

[2] = target: T2, FX activation peptide 12-mer …
Method: as §1, §2

[3] = target: T3, FX activation peptide 12-mer …
Method: as §1, §2

[4] = target: T4, FX activation peptide 12-mer …
Method: as §1, §2

[5] = target: T5, FX activation peptide 12-mer …
Method: as §1, §2

[6] = target: T6, FX activation peptide 12-mer …
Method: as §1, §2

[7] = target: T7, FX activation peptide 12-mer …
Method: as §1, §2

[8] = target: T8, FX activation peptide 12-mer …
Method: as §1, §2

[9] = target: T9, FX activation peptide 12-mer …
Method: as §1, §2

[10] = target: T10, FX activation peptide 12-mer …
Method: as §1, §2

[11] = target: T11, FX activation peptide 12-mer …
Method: as §1, §2

[12] = target: T12, FX activation peptide 12-mer …
Method: as §1, §2

[13] = target: T13, FX activation peptide 12-mer …
Method: as §1, §2

[14] = target: T14, FX activation peptide 12-mer …
Method: as §1, §2

[15] = target: T15, FX activation peptide 12-mer …
Method: as §1, §2

[16] = target: T16, FX activation peptide 12-mer …
Method: as §1, §2

[17] = target: T17, FX activation peptide 12-mer …
Method: as §1, §2

[18] = target: T18, FX activation peptide 12-mer …
Method: as §1, §2

[19] = target: T19, FX activation peptide 12-mer …
Method: as §1, §2

[20] = target: T20, FX activation peptide 12-mer …
Method: as §1, §2

[21] = target: T21, FX activation peptide 12-mer …
Method: as §1, §2

[22] = target: T22, FX activation peptide 12-mer …
Method: as §1, §2

[23] = target: T23, FX activation peptide 12-mer …
Method: as §1, §2

[24] = target: T24, FX activation peptide 12-mer …
Method: as §1, §2

[25] = target: T25, FX activation peptide 12-mer …
Method: as §1, §2

[26] = target: T26, FX activation peptide 12-mer …
Method: as §1, §2

[27] = target: T27, FX activation peptide 12-mer …
Method: as §1, §2

[28] = target: T28, FX activation peptide 12-mer …
Method: as §1, §2

[29] = target: T29, FX activation peptide 12-mer …
Method: as §1, §2

[30] = target: T30, FX activation peptide 12-mer …
Method: as §1, §2

[31] = target: T31, FX activation peptide 12-mer …
Method: as §1, §2

[32] = target: T32, FX activation peptide 12-mer …
Method: as §1, §2

[33] = target: T33, FX activation peptide 12-mer …
Method: as §1, §2

Binder | ELISA signal relative to background [1] | ELISA signal relative to background [2] | ELISA signal relative to background [3] | ELISA signal relative to background [4] | ELISA signal relative to background [5] | ELISA signal relative to background [6] | ELISA signal relative to background [7] | ELISA signal relative to background [8] | ELISA signal relative to background [9] | ELISA signal relative to background [10] | ELISA signal relative to background [11] | ELISA signal relative to background [12] | ELISA signal relative to background [13] | ELISA signal relative to background [14] | ELISA signal relative to background [15] | ELISA signal relative to background [16] | ELISA signal relative to background [17] | ELISA signal relative to background [18] | ELISA signal relative to background [19] | ELISA signal relative to background [20] | also measured
B1 | 0.97 | 0.81 | 0.75 | 0.89 | 4.38 | 0.82 | 2.16 | 0.72 | 0.87 | 0.84 | 0.82 | 0.89 | 0.79 | 0.84 | 0.92 | 0.76 | 0.84 | 0.81 | 0.88 | 3.43 | ELISA signal relative to background [21]: 0.79; ELISA signal relative to background [22]: 0.93; ELISA signal relative to background [23]: 1.17; ELISA signal relative to background [24]: 0.83; ELISA signal relative to background [25]: 0.82; ELISA signal relative to background [26]: 0.82; ELISA signal relative to background [27]: 0.79; ELISA signal relative to background [28]: 0.77; ELISA signal relative to background [29]: 0.88; ELISA signal relative to background [30]: 1.14; ELISA signal relative to background [31]: 0.86; ELISA signal relative to background [32]: 3.27; ELISA signal relative to background [33]: 0.84
B2 | 0.77 | 0.87 | 0.97 | 1 | 4.84 | 1.06 | 3.13 | 0.88 | 0.94 | 1.08 | 1 | 0.88 | 0.88 | 1.11 | 1.13 | 1.08 | 0.88 | 0.88 | 0.8 | 4 | ELISA signal relative to background [21]: 0.92; ELISA signal relative to background [22]: 1.05; ELISA signal relative to background [23]: 3.08; ELISA signal relative to background [24]: 1.1; ELISA signal relative to background [25]: 0.98; ELISA signal relative to background [26]: 0.97; ELISA signal relative to background [27]: 0.97; ELISA signal relative to background [28]: 0.96; ELISA signal relative to background [29]: 0.83; ELISA signal relative to background [30]: 0.89; ELISA signal relative to background [31]: 0.93; ELISA signal relative to background [32]: 4.38; ELISA signal relative to background [33]: 0.86
B3 | 1.2 | 1.28 | 1.19 | 1.16 | 2.1 | 1.16 | 2.82 | 1.1 | 1.16 | 1.18 | 1.26 | 1.22 | 1.21 | 1.3 | 1.26 | 1.22 | 1.18 | 1.24 | 1.17 | 6.57 | ELISA signal relative to background [21]: 1.22; ELISA signal relative to background [22]: 1.06; ELISA signal relative to background [23]: 1.18; ELISA signal relative to background [24]: 1.2; ELISA signal relative to background [25]: 1.19; ELISA signal relative to background [26]: 1.14; ELISA signal relative to background [27]: 1.24; ELISA signal relative to background [28]: 1.14; ELISA signal relative to background [29]: 1.2; ELISA signal relative to background [30]: 1.14; ELISA signal relative to background [31]: 1.24; ELISA signal relative to background [32]: 1.28; ELISA signal relative to background [33]: 1.21
